Assay results reported in article PMC2867956, “Interdomain Interactions Control Ca^2+-Dependent Potentiation in the Cation Channel TRPV4” (PLoS ONE, 2010).
pIC50: −log10 of the molar value. Each block holds one substance with its values, some of them ahead of it.

Key:
[1] = target: C2-GST-biotin (C-terminal TRPV4 fragment C2) (human); assay: AlphaScreen or HTRF; C2-biotin with CaM-Flag or mutants, Ca2+ concentration varied
[2] = target: YFP-fused C1 fragment (full-length TRPV4 C terminus); assay: FRET acceptor photobleaching in HEK293 cells; details: coexpressed in HEK293 cells; 3 independent experiments; parent: est. 35; read off a plot
[3] = target: N1-YFP (full-length TRPV4 N terminus); assay: FRET or BRET; acceptor photobleaching FRET of CFP- and YFP-fused TRPV4 termini coexpressed in HEK293 cells
[4] = target: C2-Flag (C-terminal TRPV4 fragment C2) (human); assay: AlphaScreen or HTRF; competition: acceptor beads with C2-Flag, donor beads with P2-biotin or C2-biotin, increasing CaM, 100 µM Ca2+ or 1 mM EGTA
Sequence of C2-Flag (C-terminal TRPV4 fragment C2) (human) (Q9HBA0 whole entry, the tested form may be a part): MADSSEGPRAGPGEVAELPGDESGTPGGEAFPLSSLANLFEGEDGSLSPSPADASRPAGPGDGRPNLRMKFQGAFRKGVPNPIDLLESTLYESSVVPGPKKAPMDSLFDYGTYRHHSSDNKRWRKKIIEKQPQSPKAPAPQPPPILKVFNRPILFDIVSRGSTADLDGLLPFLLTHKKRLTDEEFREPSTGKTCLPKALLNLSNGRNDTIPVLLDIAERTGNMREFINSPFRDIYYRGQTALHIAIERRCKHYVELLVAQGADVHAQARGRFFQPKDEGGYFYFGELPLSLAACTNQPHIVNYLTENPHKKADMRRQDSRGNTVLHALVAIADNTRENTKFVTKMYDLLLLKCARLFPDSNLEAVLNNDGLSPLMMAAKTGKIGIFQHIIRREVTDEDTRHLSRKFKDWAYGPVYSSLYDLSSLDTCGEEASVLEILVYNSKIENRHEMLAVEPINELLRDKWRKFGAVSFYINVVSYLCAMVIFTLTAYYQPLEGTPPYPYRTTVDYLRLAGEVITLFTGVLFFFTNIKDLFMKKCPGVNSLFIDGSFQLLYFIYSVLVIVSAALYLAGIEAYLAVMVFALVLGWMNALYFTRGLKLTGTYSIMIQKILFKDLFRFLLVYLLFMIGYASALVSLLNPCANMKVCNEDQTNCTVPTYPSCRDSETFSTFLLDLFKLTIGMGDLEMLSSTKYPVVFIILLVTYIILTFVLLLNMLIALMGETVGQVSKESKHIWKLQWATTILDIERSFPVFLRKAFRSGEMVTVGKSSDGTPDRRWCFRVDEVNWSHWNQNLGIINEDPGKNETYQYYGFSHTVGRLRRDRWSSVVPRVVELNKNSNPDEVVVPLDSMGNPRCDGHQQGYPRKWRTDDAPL

Sequence of CFP-fused N1 (full-length TRPV4 N terminus) (domain or fragment) (Q9HBA0 whole entry, the tested form may be a part): as above
Sequence of N1-YFP (full-length TRPV4 N terminus) (Q9HBA0 whole entry, the tested form may be a part): as above
Sequence of C2-GST-biotin (C-terminal TRPV4 fragment C2) (human) (Q9HBA0 whole entry, the tested form may be a part): as above

Substance: wild type CaM-Flag (from UniProt P0DP23 1-149) (natural protein)
EC50 of Ca2+ for the interaction [1]: 8.8 µM

Substance: CFP-fused N1 (full-length TRPV4 N terminus) KRA
response [2]: 17%

Substance: CFP-fused N1 (full-length TRPV4 N terminus) (domain or fragment)
maximal relative donor fluorescence increase after acceptor bleaching [3]: 1.27

Substance: CaM12 (CaM mutant Ca2+ binding-deficient in the N lobe), Flag-tagged (from UniProt P0DP23 1-149) (natural protein)
EC50 of Ca2+ for the interaction [1]: 10.7 µM

The next lines start with the values.

EC50 of Ca2+ for the interaction [1]: 27 µM
Substance: CaM34 (CaM mutant Ca2+ binding-deficient in the C lobe), Flag-tagged (from UniProt P0DP23 1-149) (natural protein)

pIC50 [4]: 6.78
Substance: calmodulin (from UniProt P0DP23 1-149) (natural protein)

response [2]: 25%
Substance: CFP-fused N1 (full-length TRPV4 N terminus) WIA
